Assay results taken from patent US20170051285A1, “COMPOSITIONS AND METHODS OF USING SAME FOR REDUCING RESISTANCE TO MOSQUITO LARVICIDES” (priority 2014, published 2017).

Test system: Ae. aegypti adult females, RJ strain
Assay: dsRNA treatment of larvae followed by pyrethroid (deltamethrin) adulticide bottle bioassay
Type: in vivo, Aedes aegypti
Details: soaking 0.1 μg/μL 24 hours plus 4 feedings with food-containing dsRNA, deltamethrin 0.5 μg/bottle
Method: Third instar larvae were treated (in groups of 100 larvae) in a final volume of 3 mL of dsRNA solution in autoclaved water (0.5 μg/μL for sodium channel (AAEL008297), PgP (AAEL010379) and Ago3 (AAEL007823) dsRNA, or 0.1 μg/μL for CYP9J26 (JF924909.1). The control group was kept in 3 ml sterile water only. Larvae were soaked in the dsRNA solutions for 24 hr at 27° C., and then transferred into new containers (300 larvae/1500 mL of chlorine-free tap water), which were also maintained at 27° C., and were provided 6 mg/100 mL lab dog/cat diet (Purina Mills) suspended in water as a source of food on a daily basis. As pupae developed, they were transferred to individual vials to await eclosion and sex sorting. For bioassays purpose only females up to five days old were used. See FIG. 11 for detailed explanation of this experiment.
After soaking in the dsRNA solutions for 24 hr at 27° C., the larvae were transferred into new containers (300 larvae/1500 mL of chlorine-free tap water), and were provided agarose cubes containing 300 μg of dsRNA once a day for a total of four days. The larvae were reared until adult stage. […]
Bottles were prepared following the Brogdon and McAllister (1998) protocol [Brogdon and McAllister (1998) Emerg Infect Dis 4:605-613]. […] At 15, 30 and 45 min intervals, the number of live and dead mosquitoes in each bottle was recorded. […]

B1: CYP9J26 dsRNA: dsRNA targeting Cytochrome p450 (CYP9J26) JF924909.1, SEQ ID NO: 203 (nucleic acid)
chain: CTTCAACGACTTCGTCCGATCAATTTACAACAAATATCCTGGAGTGAAGGTTTTCGGAATGTTCGAGACGATCACGCCGTTCTTCGTGATTCGCGATCCGGAGTTGATCAAGCAGATCGGCATCAAGGATTTCGATCACTTCGTTGACCACCGTCCGACGTTCGGACTGGACGATGAAACGGCGGAGCATCCGAAGGCGCTGTTCCGCAAGACGCTGTTCTCGATGACCGGTCAACGGTGGAAGGAGATGCGCGCTACGCTGAGTCCGGCTTTTACCGGCAGTAAGATGCGACAGATGTTCTCGCTGATGAGCGAATGCTGCGACGAAATGATGAAGCACTACCTGGACAAGGCGAAGGGCACGGGAAGGGTGGAAGTCGAAATGAAGGACTTGCTGAGTCGAATCACTATCAATGTGATTGCGTCGTGTGCTTTTGGAATCAAGGTGGAC
modifications: double stranded RNA
B1 was tested. Which “susceptibility of adult mosquitoes to deltamethrin (FIG. 18)” value did it give?
The value was “more sensitive to deltamethrin during the first 15 minutes”.

And the “susceptibility of adult mosquitoes to deltamethrin (FIG. 18)” value (listed as CYP9J29 dsRNA)?
The value was “affects the susceptibility”.
